Substitutions are numbered along the chain they refer to. Numbers in names are those of the source.
Columns and labels:
[1] = molecular target: T1, IL-2Rβγ on human CD8+ T cells, NK cells and CD4+ T cells (human, UniProt P14784 27-551; P31785 23-369); assay: cell-based or functional assay
T1 sequence (looked up) 1: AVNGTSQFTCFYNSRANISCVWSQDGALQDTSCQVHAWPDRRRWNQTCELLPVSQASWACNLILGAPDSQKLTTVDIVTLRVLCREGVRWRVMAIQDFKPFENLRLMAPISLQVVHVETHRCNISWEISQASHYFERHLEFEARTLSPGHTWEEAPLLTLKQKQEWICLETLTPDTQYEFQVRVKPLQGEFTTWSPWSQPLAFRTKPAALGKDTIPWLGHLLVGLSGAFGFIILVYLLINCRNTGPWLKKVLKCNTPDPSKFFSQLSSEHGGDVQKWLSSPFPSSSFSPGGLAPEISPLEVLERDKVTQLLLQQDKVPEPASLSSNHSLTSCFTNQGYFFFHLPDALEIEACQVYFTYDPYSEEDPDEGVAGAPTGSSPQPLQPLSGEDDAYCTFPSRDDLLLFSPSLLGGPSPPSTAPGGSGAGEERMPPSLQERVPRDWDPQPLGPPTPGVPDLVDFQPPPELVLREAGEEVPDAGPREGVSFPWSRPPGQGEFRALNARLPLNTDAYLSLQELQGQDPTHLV
T1 sequence (looked up) 2: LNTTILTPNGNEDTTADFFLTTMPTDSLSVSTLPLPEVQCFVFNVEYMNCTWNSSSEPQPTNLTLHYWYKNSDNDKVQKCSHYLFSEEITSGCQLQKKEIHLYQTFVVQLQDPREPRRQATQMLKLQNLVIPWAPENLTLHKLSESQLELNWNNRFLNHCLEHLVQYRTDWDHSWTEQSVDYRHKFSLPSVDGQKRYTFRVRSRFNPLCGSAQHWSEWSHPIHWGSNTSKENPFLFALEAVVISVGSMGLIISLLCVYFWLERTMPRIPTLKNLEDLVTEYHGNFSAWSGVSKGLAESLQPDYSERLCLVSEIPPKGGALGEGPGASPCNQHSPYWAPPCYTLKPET

IL-2Rα-ECD = molecular target: T2, IL-2Rα-ECD (human, UniProt P01589 22-240); assay: ELISA, IL-2Rα-ECD coated
T2 construct: coated on ELISA plates at 0.1 µg/well; also called CD25; receptor subunit α
T2 sequence: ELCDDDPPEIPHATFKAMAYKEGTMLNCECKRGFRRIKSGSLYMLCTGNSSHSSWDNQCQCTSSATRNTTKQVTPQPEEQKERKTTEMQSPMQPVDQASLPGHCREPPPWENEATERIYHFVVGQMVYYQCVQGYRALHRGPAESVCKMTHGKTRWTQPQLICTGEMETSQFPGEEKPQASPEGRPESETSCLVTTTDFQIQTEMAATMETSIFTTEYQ
Procedure: A panel of IL-2 muteins was expressed as C-terminal fusions to the Fc homodimer of Fc heterodimer and screened for binding to IL-2Rα in enzyme-linked immunosorbent assay (ELISA). Briefly, IL-2Rα-ECD (SEQ ID NO: 5) was coated onto the wells of Nunc Maxisorp 96-well microplates at 0.1 μg/well. After overnight incubation at 4° C. and blocking with superblock (Thermo Fisher), 3-fold serial dilutions of IL-2 Fc fusion proteins starting at 100 nM were added to each well at 100 μI/well. Following one-hour incubation at room temperature, 100 μl/well of goat anti-human IgG Fc-HRP (1:5000 diluted in diluent) were added to each well and incubated at room temperature for 1 hour. Wells were thoroughly aspirated and washed three times with PBS/0.05% Tween-20 following each step. Finally, 100 μl TMB substrate was added to each well; the plate was developed at room temperature in the dark for 10 minutes, and 100 μl/well of stop solution (2N Sulfuric acid, Ricca Chemical) was added. Absorbance was determined at 450 nm and curves were fit using Prism software (Graph Pad).

[2] = molecular target: T3, IL-2Rα (CD25) on human CD4+ Treg cells (human, UniProt P01589 22-272); assay: cell-based or functional assay
T3 sequence (looked up): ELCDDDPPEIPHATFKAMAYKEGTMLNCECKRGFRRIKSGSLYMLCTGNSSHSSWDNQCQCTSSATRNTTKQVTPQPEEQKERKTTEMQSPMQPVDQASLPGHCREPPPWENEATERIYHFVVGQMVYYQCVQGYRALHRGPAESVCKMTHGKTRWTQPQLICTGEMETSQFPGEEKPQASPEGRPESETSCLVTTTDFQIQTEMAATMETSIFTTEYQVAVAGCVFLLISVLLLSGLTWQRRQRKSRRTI

[3] = molecular target: T1, IL-2Rβγ on human CD8+ T cells, NK cells …; assay: cell-based or functional assay; remark: listed apart in the source

B1: P-0732 (Fc fusion)
chain: DKTHTCPPCPAPEAAGAPSVFLFPPKPKDTLMISRTPEVTCVVVDVSHEDPEVKFNWYVDGVEVHNAKTKPREEQYNSTYRVVSVLTVLHQDWLNGKEYKCKVSNKALPAPIEKTISKAKGQPREPQVCTLPPSREEMTKNQVSLWCLVKGFYPSDIAVEWESNGQPENNYKTTPPVLDSDGSFFLYSKLTVDKSRWQQGNVFSCSVMHEALHNHYTQKSLSLSPGGGGSGGGSAPTSSSTKKTQLQLEHLLLDLQMILNGINNYKNPKLTRMLTFKFYMPKKATELKHLQCLEEELKRLEEVLNLAQSKNFHLRPRDLISNINVIVLELKGSETTFMCEYADETATIVEFLNRWITFIESIISTLT
Fc: DKTHTCPPCPAPEAAGAPSVFLFPPKPKDTLMISRTPEVTCVVVDVSHEDPEVKFNWYVDGVEVHNAKTKPREEQYNSTYRVVSVLTVLHQDWLNGKEYKCKVSNKALPAPIEKTISKAKGQPREPQVYTLPPCREEMTKNQVSLSCAVKGFYPSDIAVEWESNGQPENNYKTTPPVLDSDGSFFLVSKLTVDKSRWQQGNVFSCSVMHEALHNHYTQKSLSLSPG
With B1 the “Ki67 expression on human CD8+ T cells (EC50 against P-0704)” value [1] was > 100 fold.

B2: P-0767 (Fc fusion)
chain 1: B1 chain with F276A, E296H, R299P, E360Q
chain 2: B1 Fc
notes: knob chain carries the IL-2 variant; hole-Fc; monovalent; also called IL-2 F42A/E62H/S125I monovalent Fc fusion
In the case of B2, the “Binding EC50 vs P-0689” value (IL-2Rα-ECD) is reported as > 500 fold (ratio of EC50s) and the binding result (IL-2Rα-ECD) is reported as “no binding”.

B3: P-0703 (Fc fusion)
chain 1: B1 chain with F276A, R299H, E360Q
chain 2: B1 Fc
notes: knob chain carries the IL-2 variant; hole-Fc; monovalent; also called IL-2 F42A/P65H/S125I monovalent Fc fusion
For B3, the “Binding EC50 vs P-0689” value (IL-2Rα-ECD) was > 500 fold (ratio of EC50s) and the binding result (IL-2Rα-ECD) was “no binding”.

B4: P-0702 (Fc fusion)
chain 1: B1 chain with F276A, E296F, R299P, E360Q
chain 2: B1 Fc
notes: knob chain carries the IL-2 variant; hole-Fc; monovalent; also called IL-2 F42A/E62F/S125I monovalent Fc fusion
With B4 the “Binding EC50 vs P-0689” value (IL-2Rα-ECD) was > 500 fold (ratio of EC50s) and the binding result (IL-2Rα-ECD) was “no binding”.

B5: P-0765 (Fc fusion)
chain 1: B1 chain with F276A, R299A, E360Q
chain 2: B1 Fc
notes: knob chain carries the IL-2 variant; hole-Fc; monovalent; also called IL-2 F42A/P65A/S125I monovalent Fc fusion
B5 was tested, and the “Binding EC50 vs P-0689” value (IL-2Rα-ECD) was 6.8 fold (ratio of EC50s).

B6: P-0766 (Fc fusion)
chain 1: B1 chain with F276A, E296A, R299P, E360Q
chain 2: B1 Fc
notes: knob chain carries the IL-2 variant; hole-Fc; monovalent; also called IL-2 F42A/E62A/S125I monovalent Fc fusion
With B6 the “Binding EC50 vs P-0689” value (IL-2Rα-ECD) was > 500 fold (ratio of EC50s) and the binding result (IL-2Rα-ECD) was “no binding”.

B7: P-0837 (antibody, mouse IgG1, kappa)
heavy 1: EVQLQESGPGLVKPSQSLSLTCSVTGYSITSSYRWNWIRKFPGNRLEWMGYINSAGISNYNPSLKRRISITRDTSKNQFFLQVNSVTTEDAATYYCARSDNMGTTPFTYWGQGTLVTVSSAKTTPPSVYPLAPGSAAQTNSMVTLGCLVKGYFPEPVTVTWNSGSLSSGVHTFPAVLQSDLYTLSSSVTVPSSTWPSQTVTCNVAHPASSTKVDKKIVPRDCGCKPCICTVPEVSSVFIFPPKPKDVLTITLTPKVTCVVVAISKDDPEVQFSWFVDDVEVHTAQTKPREEQINSTFRSVSELPIMHQDWLNGKEFKCRVNSAAFGAPIEKTISKTKGRPKAPQVYTIPPPKKQMAKDKVSLTCMITNFFPEDITVEWQWNGQPAENYKNTQPIMKTDGSYFVYSKLNVQKSNWEAGNTFTCSVLHEGLHNHHTEKSLSHSPG
heavy 2: not shown
light: DIVMTQGTLPNPVPSGESVSITCRSSKSLLYSDGKTYLNWYLQRPGQSPQLLIYWMSTRASGVSDRFSGSGSGTDFTLKISGVEAEDVGIYYCQQGLEFPTFGGGTKLELKRTDAAPTVSIFPPSSEQLTSGGASVVCFLNNFYPRDINVKWKIDGSERQNGVLNSWTDQDSKDSTYSMSSTLTLTKDEYERHNSYTCEATHKTSTSPIVKSFNRNEC
For B7, the “pSTAT5 EC50 in Treg cells (human PBMC)” value [2] was 0.45 pM.

B8: P-0838 (antibody, mouse IgG1, kappa)
heavy 1: B7 heavy 1
heavy 2: not shown
light: B7 light
With B8 the “pSTAT5 EC50 in Treg cells (human PBMC)” value [2] was 0.36 nM, the “pSTAT5 EC50 in Treg cells, fold against P-0837” value [2] was 800 fold and the “pSTAT5 EC50 in CD8+ T cells (human PBMC)” value [1] was 4.6 nM.

B9: P-0782 (antibody, mouse IgG1, kappa)
heavy 1: B7 heavy 1
heavy 2: not shown
light: B7 light
With B9 the “pSTAT5 EC50 in Treg cells (human PBMC)” value [2] was 4.5 nM, the “pSTAT5 EC50 in Treg cells, fold against P-0837” value [2] was 10000 fold and the “pSTAT5 EC50 in CD8+ T cells (human PBMC)” value [1] was 4.6 nM.

B10: P-0880 (antibody, human IgG1, kappa)
heavy 1: not shown
heavy 2: EVQLVESGGGLVKPGGSLRLSCAASGFTFSSYDMSWVRQAPGKGLEWVATISGGGSYTYYPDSVKGRFTISRDNAKNSLYLQMNSLRAEDTAVYYCASPDSSGVAYWGQGTLVTVSSASTKGPSVFPLAPSSKSTSGGTAALGCLVKDYFPEPVTVSWNSGALTSGVHTFPAVLQSSGLYSLSSVVTVPSSSLGTQTYICNVNHKPSNTKVDKKVEPKSCDKTHTCPPCPAPEAAGAPSVFLFPPKPKDTLMISRTPEVTCVVVDVSHEDPEVKFNWYVDGVEVHNAKTKPREEQYNSTYRVVSVLTVLHQDWLNGKEYKCKVSNKALPAPIEKTISKAKGQPREPQVCTLPPSREEMTKNQVSLSCAVKGFYPSDIAVEWESNGQPENNYKTTPPVLDSDGSFFLVSKLTVDKSRWQQGNVFSCSVMHEALHNHYTQKSLSLSPG
light: DIVMTQSPLSLPVTPGEPASITCKASQDVETVVAWYLQKPGQSPRLLIYWASTRHTGVPDRFSGSGSGTDFTLKISRVEAEDVGVYYCQQYSRYPWTFGQGTKLEIKRTVAAPSVFIFPPSDEQLKSGTASVVCLLNNFYPREAKVQWKVDNALQSGNSQESVTEQDSKDSTYSLSSTLTLSKADYEKHKVYACEVTHQGLSSPVTKSFNRGEC
B10 was tested, and the “Ki67 EC50 (nM), CD8+ T” value [3] was 1.7 nM, the “Ki67 EC50 (nM), NK” value [3] was 3.6 nM and the “pSTA5 EC50 (pM), CD8+ T” value [3] was 73 pM. The “pSTA5 EC50 (pM), NK” value [3] was 643 pM.

B11: P-0885 (antibody, human IgG1, kappa)
heavy 1: EVQLVESGGGLVKPGGSLRLSCAASGFTFSSYDMSWVRQAPGKGLEWVATISGGGSYTYYPDSVKGRFTISRDNAKNSLYLQMNSLRAEDTAVYYCASPDSSGVAYWGQGTLVTVSSASTKGPSVFPLAPSSKSTSGGTAALGCLVKDYFPEPVTVSWNSGALTSGVHTFPAVLQSSGLYSLSSVVTVPSSSLGTQTYICNVNHKPSNTKVDKKVEPKSCDKTHTCPPCPAPEAAGAPSVFLFPPKPKDTLMISRTPEVTCVVVDVSHEDPEVKFNWYVDGVEVHNAKTKPREEQYNSTYRVVSVLTVLHQDWLNGKEYKCKVSNKALPAPIEKTISKAKGQPREPQVYTLPPCREEMTKNQVSLWCLVKGFYPSDIAVEWESNGQPENNYKTTPPVLDSDGSFFLYSKLTVDKSRWQQGNVFSCSVMHEALHNHYTQKSLSLSPGGGGGSGGGGSGGGGSAPTSSSTKKTQLQLEHLLQDLQMILNGINNYKNPKLTRMLTFKFYMPKKATELKHLQCLEEELKRLEEVLNLAQSKNFHLRPRDLISNINVIVLELKGSETTFMCEYADETATIVEFLNRWITFIQSIISTLT
heavy 2: B10 heavy 2
light: B10 light
B11 was tested, and the “Ki67 EC50 (nM), CD8+ T” value [3] was 9.3 nM, the “Ki67 EC50 (nM), NK” value [3] was 21 nM and the “pSTA5 EC50 (pM), CD8+ T” value [3] was 249 pM. For the same binder, the “pSTA5 EC50 (pM), NK” value [3] was 2330 pM.

B12: P-0882 (antibody, human IgG1, kappa)
heavy 1: B11 heavy 1 with Q480H
heavy 2: B10 heavy 2
light: B10 light
For B12, the “Ki67 EC50 (nM), CD8+ T” value [3] was 77 nM, the “Ki67 EC50 (nM), NK” value [3] was 230 nM and the “pSTA5 EC50 (pM), CD8+ T” value [3] was 513 pM. For the same binder, the “pSTA5 EC50 (pM), NK” value [3] was 9920 pM.

— patent US20220235109A1 (CUGENE, published 2022)
